B1: Phospholipid-transporting ATPase accessory subunit CRF1 (Saccharomyces cerevisiae), P53740 (parent)
chain: MGLILRWKEKKQLSSKQNAQKSRKPANTSFRQQRLKAWQPILSPQSVLPLLILMACVFAPIGIGLVVSTISVQRLVVNYTECDALAPAKHFETIPSEYVDYHFSKKVAVQPQWMVLTDPELGNQTCRIQFEVPNHIKKSTYVYYRLTNFNQNYREYVQSLDLDQLKGKALIGNDLDPNCDPLRTVENKTIFPCGLIANSMFNDTFGTTLTGVNDTADYLLTTKGIAWDTDSHRYGKTEYNASDIVPPPNWAKLFPNGYTDDNIPDLQNWEQFKIWMRTAALPNFYKLAMKNETNGLGKGIYIADIELNYPVRSFYGTKSFVLTTNSIIGAGNEALGIVYLIVAGIATLFAILFLIKVIFKPRPMHDHSYLNFENSDTPFDESSVVSIPLREIL
B2: Phospholipid-transporting ATPase accessory subunit CDC50 (Saccharomyces cerevisiae), P25656 (parent)
chain: MVSLFKRGKAPPLTKEGPTSKKPPNTAFRQQRLKAWQPILSPQSVLPLLIFVACIFTPIGIGLIVSATKVQDLTIDYSHCDTKASTTAFEDIPKKYIKYHFKSKVENKPQWRLTENENGEQSCELQFEIPNDIKKSIFIYYKITNFYQNHRRYVQSFDTKQILGEPIKKDDLDTSCSPIRSREDKIIYPCGLIANSMFNDTFSQVLSGIDDTEDYNLTNKHISWSIDRHRFKTTKYNASDIVPPPNWMKKYPDGYTDENLPDIHTWEEFQVWMRTAAFPKFYKLTLKNESASLPKGKYQMNIELNYPISLFGGTKSFVLTTNGAIGGRNMSLGVLYLIVAGLCALFGIIFLVKLIFQPRAMGDHTYLNFDDEENEDYEDVHAENTTLREIL
partner: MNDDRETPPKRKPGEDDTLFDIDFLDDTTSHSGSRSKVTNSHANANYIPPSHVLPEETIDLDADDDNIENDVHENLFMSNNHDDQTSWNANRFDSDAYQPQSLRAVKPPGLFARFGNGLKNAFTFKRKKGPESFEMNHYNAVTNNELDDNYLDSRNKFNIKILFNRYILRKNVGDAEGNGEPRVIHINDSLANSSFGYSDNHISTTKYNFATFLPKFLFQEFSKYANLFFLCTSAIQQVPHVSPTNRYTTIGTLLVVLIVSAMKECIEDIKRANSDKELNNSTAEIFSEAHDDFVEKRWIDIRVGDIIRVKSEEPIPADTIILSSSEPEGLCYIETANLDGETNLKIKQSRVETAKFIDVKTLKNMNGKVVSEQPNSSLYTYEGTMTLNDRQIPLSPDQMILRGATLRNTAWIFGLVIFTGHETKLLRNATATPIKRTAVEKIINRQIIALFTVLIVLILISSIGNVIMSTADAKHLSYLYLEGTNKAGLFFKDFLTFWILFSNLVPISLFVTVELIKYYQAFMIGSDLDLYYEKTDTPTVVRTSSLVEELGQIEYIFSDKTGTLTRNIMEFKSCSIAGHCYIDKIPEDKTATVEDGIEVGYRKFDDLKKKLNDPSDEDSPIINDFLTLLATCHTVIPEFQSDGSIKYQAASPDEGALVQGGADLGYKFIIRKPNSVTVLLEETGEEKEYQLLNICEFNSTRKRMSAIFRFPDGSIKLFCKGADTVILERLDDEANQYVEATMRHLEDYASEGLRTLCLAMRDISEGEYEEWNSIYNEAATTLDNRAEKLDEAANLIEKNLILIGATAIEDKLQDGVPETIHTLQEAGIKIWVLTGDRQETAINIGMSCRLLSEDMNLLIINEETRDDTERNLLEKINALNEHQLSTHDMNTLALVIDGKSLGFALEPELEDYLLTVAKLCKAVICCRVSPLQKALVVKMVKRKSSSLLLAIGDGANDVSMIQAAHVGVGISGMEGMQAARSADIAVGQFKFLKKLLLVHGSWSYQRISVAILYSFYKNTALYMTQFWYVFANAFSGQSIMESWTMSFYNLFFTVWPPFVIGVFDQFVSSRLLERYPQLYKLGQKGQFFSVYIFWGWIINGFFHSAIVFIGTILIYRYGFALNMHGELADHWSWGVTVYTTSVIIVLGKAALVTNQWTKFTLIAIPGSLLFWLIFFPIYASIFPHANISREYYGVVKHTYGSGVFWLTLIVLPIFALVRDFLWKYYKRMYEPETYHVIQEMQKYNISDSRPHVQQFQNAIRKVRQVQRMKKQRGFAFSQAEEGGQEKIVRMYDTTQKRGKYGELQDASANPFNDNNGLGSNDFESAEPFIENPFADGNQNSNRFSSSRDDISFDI
B3: Phospholipid-transporting ATPase accessory subunit LEM3 (Saccharomyces cerevisiae), P42838 (parent)
chain: MVNFDLGQVGEVFRRKDKGAIVSGDNPEEEEDVDASEFEEDEVKPVRTKNRRPKEDAFTQQRLAAINPVLTPRTVLPLYLLIAVVFVIVGGCILAQNSKVDEVTIYYQDCMTNATSSWSDIPSEHWQFVFHKYKTYNTAPQWRFVDDESDDFTKQRGTCQIRFTTPSDMKNNVYLNYVLEKFAANHRRYVLSFSEDQIRGEDASYETVHDATGINCKPLSKNADGKIYYPCGLIANSMFNDTFPLQLTNVGDTSNNYSLTNKGINWESDKKRYKKTKYNYTQIAPPPYWEKMYPDGYNETNIPDIQDWEEFQNWMRPGAFDKITKLIRINKNDTLPAGEYQLDIGLHWPVLEFNGKKGIYLTHGSHLGGRNPFLGIVYLIGGCICAAMALILLTFWLFGGRKIADASSLSWNMK

Variants of: B1
Conditions: with atc8_yeast DNF3, Q12674
atc8_yeast DNF3, Q12674, sequence (Q12674 whole entry): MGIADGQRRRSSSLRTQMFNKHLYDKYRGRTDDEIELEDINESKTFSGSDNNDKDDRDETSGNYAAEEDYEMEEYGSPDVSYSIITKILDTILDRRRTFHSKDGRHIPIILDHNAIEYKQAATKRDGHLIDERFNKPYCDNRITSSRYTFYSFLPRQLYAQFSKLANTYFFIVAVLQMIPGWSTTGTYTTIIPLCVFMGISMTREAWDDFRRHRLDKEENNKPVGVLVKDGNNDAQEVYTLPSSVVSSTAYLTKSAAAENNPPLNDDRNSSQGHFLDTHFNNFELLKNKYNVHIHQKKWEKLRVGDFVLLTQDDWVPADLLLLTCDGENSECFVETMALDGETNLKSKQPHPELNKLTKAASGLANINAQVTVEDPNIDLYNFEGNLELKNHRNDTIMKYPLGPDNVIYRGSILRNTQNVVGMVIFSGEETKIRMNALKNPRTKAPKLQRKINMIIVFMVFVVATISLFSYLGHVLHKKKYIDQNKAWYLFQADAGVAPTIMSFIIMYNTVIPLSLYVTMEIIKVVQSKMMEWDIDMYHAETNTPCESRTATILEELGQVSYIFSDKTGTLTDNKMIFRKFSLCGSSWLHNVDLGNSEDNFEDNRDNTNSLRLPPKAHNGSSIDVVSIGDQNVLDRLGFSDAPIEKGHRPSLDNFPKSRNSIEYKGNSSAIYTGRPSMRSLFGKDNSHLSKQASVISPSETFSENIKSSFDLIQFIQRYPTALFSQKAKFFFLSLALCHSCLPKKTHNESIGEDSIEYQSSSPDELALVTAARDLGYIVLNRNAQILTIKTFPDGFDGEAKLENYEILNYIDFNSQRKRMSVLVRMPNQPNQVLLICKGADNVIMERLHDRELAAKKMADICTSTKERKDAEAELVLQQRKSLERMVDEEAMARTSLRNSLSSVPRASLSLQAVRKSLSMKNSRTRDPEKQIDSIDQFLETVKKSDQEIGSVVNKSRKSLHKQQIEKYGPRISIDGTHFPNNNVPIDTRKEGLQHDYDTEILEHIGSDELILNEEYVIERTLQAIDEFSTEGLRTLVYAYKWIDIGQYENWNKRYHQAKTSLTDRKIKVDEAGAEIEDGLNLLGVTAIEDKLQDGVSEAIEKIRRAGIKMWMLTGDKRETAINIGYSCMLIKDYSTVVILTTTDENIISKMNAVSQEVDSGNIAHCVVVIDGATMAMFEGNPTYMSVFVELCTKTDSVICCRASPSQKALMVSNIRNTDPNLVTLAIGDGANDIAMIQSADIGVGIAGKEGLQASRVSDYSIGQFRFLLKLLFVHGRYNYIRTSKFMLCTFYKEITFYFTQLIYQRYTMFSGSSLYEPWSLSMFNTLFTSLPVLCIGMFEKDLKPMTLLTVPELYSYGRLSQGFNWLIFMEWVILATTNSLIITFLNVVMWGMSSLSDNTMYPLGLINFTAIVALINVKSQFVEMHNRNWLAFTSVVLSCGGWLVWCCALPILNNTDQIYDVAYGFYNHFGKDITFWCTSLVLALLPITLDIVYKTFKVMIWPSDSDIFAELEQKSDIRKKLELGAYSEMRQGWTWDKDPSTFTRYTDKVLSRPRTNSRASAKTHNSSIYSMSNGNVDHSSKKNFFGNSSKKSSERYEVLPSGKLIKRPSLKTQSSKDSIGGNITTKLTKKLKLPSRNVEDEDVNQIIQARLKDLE

| Variant | effect of a mutation on the interaction |
| --- | --- |
| MGLILRWKEKKQLSSKQNAQKSRKPANTSFRQQRLKAWQPILSPQSVLPLLILMACVFAPIGIGLVVSTISVQRLVVNYTECDALAPAKHFETIPSEYVDYHFSKKVAVQPQWMVLTDPELGNQTCRIQFEVPNHIKKSTYVYYRLTNFNQNYREYVQSLDLDQLKGKALIGNDLDPNCDPLRTVENKTIFPAGLIANSMFNDTFGTTLTGVNDTADYLLTTKGIAWDTDSHRYGKTEYNASDIVPPPNWAKLFPNGYTDDNIPDLQNWEQFKIWMRTAALPNFYKLAMKNETNGLGKGIYIADIELNYPVRSFYGTKSFVLTTNSIIGAGNEALGIVYLIVAGIATLFAILFLIKVIFKPRPMHDHSYLNFENSDTPFDESSVVSIPLREIL [C193A] | decreasing interaction strength |

Variants of: B2
Conditions: with atc3_yeast DRS2, P39524

| Variant | effect of a mutation on the interaction |
| --- | --- |
| MVSLFKRGKAPPLTKEGPTSKKPPNTAFRQQRLKAWQPILSPQSVLPLLIFVACIFTPIGIGLIVSATKVQDLTIDYSHCDTKASTTAFEDIPKKYIKYHFKSKVENKPQWRLTENENGEQSCELQFEIPNDIKKSIFIYYKITNFYQNHRRYVQSFDTKQILGEPIKKDDLDTSCSPIRSREDKIIYPAGLIANSMFNDTFSQVLSGIDDTEDYNLTNKHISWSIDRHRFKTTKYNASDIVPPPNWMKKYPDGYTDENLPDIHTWEEFQVWMRTAAFPKFYKLTLKNESASLPKGKYQMNIELNYPISLFGGTKSFVLTTNGAIGGRNMSLGVLYLIVAGLCALFGIIFLVKLIFQPRAMGDHTYLNFDDEENEDYEDVHAENTTLREIL [C190A] | decreasing interaction strength |
| MVSLFKRGKAPPLTKEGPTSKKPPNTAFRQQRLKAWQPILSPQSVLPLLIFVACIFTPIGIGLIVSATKVQDLTIDYSHCDTKASTTAFEDIPKKYIKYHFKSKVENKPQWRLTENENGEQSAELQFEIPNDIKKSIFIYYKITNFYQNHRRYVQSFDTKQILGEPIKKDDLDTSCSPIRSREDKIIYPCGLIANSMFNDTFSQVLSGIDDTEDYNLTNKHISWSIDRHRFKTTKYNASDIVPPPNWMKKYPDGYTDENLPDIHTWEEFQVWMRTAAFPKFYKLTLKNESASLPKGKYQMNIELNYPISLFGGTKSFVLTTNGAIGGRNMSLGVLYLIVAGLCALFGIIFLVKLIFQPRAMGDHTYLNFDDEENEDYEDVHAENTTLREIL [C123A] | disrupting interaction strength |
| MVSLFKRGKAPPLTKEGPTSKKPPNTAFRQQRLKAWQPILSPQSVLPLLIFVACIFTPIGIGLIVSATKVQDLTIDYSHADTKASTTAFEDIPKKYIKYHFKSKVENKPQWRLTENENGEQSCELQFEIPNDIKKSIFIYYKITNFYQNHRRYVQSFDTKQILGEPIKKDDLDTSCSPIRSREDKIIYPCGLIANSMFNDTFSQVLSGIDDTEDYNLTNKHISWSIDRHRFKTTKYNASDIVPPPNWMKKYPDGYTDENLPDIHTWEEFQVWMRTAAFPKFYKLTLKNESASLPKGKYQMNIELNYPISLFGGTKSFVLTTNGAIGGRNMSLGVLYLIVAGLCALFGIIFLVKLIFQPRAMGDHTYLNFDDEENEDYEDVHAENTTLREIL [C80A] | disrupting interaction strength |
| MVSLFKRGKAPPLTKEGPTSKKPPNTAFRQQRLKAWQPILSPQSVLPLLIFVACIFTPIGIGLIVSATKVQDLTIDYSHCDTKASTTAFEDIPKKYIKYHFKSKVENKPQWRLTENENGEQSCELQFEIPNDIKKSIFIYYKITNFYQNHRRYVQSFDTKQILGEPIKKDDLDTSASPIRSREDKIIYPCGLIANSMFNDTFSQVLSGIDDTEDYNLTNKHISWSIDRHRFKTTKYNASDIVPPPNWMKKYPDGYTDENLPDIHTWEEFQVWMRTAAFPKFYKLTLKNESASLPKGKYQMNIELNYPISLFGGTKSFVLTTNGAIGGRNMSLGVLYLIVAGLCALFGIIFLVKLIFQPRAMGDHTYLNFDDEENEDYEDVHAENTTLREIL [C176A] | decreasing interaction strength |

Variants of: B3
Conditions: with atc5_yeast DNF1, P32660
atc5_yeast DNF1, P32660, sequence (P32660 whole entry): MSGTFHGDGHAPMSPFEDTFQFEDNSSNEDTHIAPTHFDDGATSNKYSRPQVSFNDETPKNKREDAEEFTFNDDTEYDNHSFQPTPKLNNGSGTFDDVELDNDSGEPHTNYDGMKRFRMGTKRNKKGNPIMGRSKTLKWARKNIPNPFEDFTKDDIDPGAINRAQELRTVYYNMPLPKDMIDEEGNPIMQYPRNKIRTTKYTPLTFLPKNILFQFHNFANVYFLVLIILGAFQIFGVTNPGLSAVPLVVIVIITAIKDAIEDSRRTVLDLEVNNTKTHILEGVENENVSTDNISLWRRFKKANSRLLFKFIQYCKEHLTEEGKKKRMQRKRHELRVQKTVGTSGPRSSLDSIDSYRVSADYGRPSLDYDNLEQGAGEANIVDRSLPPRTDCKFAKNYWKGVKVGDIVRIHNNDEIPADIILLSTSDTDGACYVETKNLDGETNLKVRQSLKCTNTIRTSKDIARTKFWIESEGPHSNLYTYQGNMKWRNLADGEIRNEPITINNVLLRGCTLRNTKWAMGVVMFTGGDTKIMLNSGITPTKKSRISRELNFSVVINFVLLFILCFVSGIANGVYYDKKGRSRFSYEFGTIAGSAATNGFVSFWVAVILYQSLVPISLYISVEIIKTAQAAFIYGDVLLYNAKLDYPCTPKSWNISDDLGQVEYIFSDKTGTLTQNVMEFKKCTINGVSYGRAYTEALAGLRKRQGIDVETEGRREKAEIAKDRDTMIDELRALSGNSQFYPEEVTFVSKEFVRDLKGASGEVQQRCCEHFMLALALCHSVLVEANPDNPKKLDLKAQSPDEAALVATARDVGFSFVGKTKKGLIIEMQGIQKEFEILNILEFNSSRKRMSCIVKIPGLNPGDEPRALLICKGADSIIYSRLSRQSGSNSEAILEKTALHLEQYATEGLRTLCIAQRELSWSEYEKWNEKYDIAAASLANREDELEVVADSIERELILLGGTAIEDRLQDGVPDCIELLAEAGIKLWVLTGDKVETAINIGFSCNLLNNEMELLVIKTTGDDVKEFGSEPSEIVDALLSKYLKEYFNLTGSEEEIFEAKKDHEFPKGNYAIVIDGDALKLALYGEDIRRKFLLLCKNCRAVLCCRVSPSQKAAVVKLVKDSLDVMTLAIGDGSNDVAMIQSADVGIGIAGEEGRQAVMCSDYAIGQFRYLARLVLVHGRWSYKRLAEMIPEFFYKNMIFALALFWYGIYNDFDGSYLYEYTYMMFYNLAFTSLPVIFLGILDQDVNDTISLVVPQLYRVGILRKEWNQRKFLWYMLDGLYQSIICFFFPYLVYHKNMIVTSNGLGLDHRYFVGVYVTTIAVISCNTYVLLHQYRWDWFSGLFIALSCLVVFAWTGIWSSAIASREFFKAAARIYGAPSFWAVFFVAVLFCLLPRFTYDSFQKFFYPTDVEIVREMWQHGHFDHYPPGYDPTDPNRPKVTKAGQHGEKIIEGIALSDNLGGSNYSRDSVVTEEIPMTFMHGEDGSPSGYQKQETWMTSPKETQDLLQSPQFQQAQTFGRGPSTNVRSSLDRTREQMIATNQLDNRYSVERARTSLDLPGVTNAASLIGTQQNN

| Variant | effect of a mutation on the interaction |
| --- | --- |
| MVNFDLGQVGEVFRRKDKGAIVSGDNPEEEEDVDASEFEEDEVKPVRTKNRRPKEDAFTQQRLAAINPVLTPRTVLPLYLLIAVVFVIVGGCILAQNSKVDEVTIYYQDCMTNATSSWSDIPSEHWQFVFHKYKTYNTAPQWRFVDDESDDFTKQRGTCQIRFTTPSDMKNNVYLNYVLEKFAANHRRYVLSFSEDQIRGEDASYETVHDATGINCKPLSKNADGKIYYPCGLIANSMFNDTFPLQLTNVGDTSNNYSLTNKGINWESDKKRYKKTKYNYTQIAPPPYWEKMYPDGYNETNIPDIQDWEEFQNWMRPGAFDKITKLIRINKNDTLPAGEYQLDIGLHWPVLEFNGKKGIYLTHGSHLGGRNPFLEIVYLIGGCICAAMALILLTFWLFGGRKIADASSLSWNMK [G375E] | disrupting interaction strength |
| MVNFDLGQVGEVFRRKDKGAIVSGDNPEEEEDVDASEFEEDEVKPVRTKNRRPKEDAFTQQRLAAINPVLTPRTVLPLYLLIAVVFVIVGGCILAQNSKVDEVTIYYQDAMTNATSSWSDIPSEHWQFVFHKYKTYNTAPQWRFVDDESDDFTKQRGTCQIRFTTPSDMKNNVYLNYVLEKFAANHRRYVLSFSEDQIRGEDASYETVHDATGINCKPLSKNADGKIYYPCGLIANSMFNDTFPLQLTNVGDTSNNYSLTNKGINWESDKKRYKKTKYNYTQIAPPPYWEKMYPDGYNETNIPDIQDWEEFQNWMRPGAFDKITKLIRINKNDTLPAGEYQLDIGLHWPVLEFNGKKGIYLTHGSHLGGRNPFLGIVYLIGGCICAAMALILLTFWLFGGRKIADASSLSWNMK [C110A] | disrupting interaction strength |
| MVNFDLGQVGEVFRRKDKGAIVSGDNPEEEEDVDASEFEEDEVKPVRTKNRRPKEDAFTQQRLAAINPVLTPRTVLPLYLLITVVFVIVGGCILAQNSKVDEVTIYYQDCMTNATSSWSDIPSEHWQFVFHKYKTYNTAPQWRFVDDESDDFTKQRGTCQIRFTTPSDMKNNVYLNYVLEKFAANHRRYVLSFSEDQIRGEDASYETVHDATGINCKPLSKNADGKIYYPCGLIANSMFNDTFPLQLTNVGDTSNNYSLTNKGINWESDKKRYKKTKYNYTQIAPPPYWEKMYPDGYNETNIPDIQDWEEFQNWMRPGAFDKITKLIRINKNDTLPAGEYQLDIGLHWPVLEFNGKKGIYLTHGSHLGGRNPFLGIVYLIGGCICAAMALILLTFWLFGGRKIADASSLSWNMK [A83T] | disrupting interaction strength |
